Measured values published in US20190015483A1 (CSL BEHRING RECOMBINANT FACILITY, published 2019).
Where a chain is given by its changes, count along the chain named. Numbers in names are those of the source.

T1: recombinant Factor VIII (CSL627, rVIII-SingleChain) (Homo sapiens (Human), UniProt P00451 20-2351)
T1 construct: also called FVIII
T1 sequence: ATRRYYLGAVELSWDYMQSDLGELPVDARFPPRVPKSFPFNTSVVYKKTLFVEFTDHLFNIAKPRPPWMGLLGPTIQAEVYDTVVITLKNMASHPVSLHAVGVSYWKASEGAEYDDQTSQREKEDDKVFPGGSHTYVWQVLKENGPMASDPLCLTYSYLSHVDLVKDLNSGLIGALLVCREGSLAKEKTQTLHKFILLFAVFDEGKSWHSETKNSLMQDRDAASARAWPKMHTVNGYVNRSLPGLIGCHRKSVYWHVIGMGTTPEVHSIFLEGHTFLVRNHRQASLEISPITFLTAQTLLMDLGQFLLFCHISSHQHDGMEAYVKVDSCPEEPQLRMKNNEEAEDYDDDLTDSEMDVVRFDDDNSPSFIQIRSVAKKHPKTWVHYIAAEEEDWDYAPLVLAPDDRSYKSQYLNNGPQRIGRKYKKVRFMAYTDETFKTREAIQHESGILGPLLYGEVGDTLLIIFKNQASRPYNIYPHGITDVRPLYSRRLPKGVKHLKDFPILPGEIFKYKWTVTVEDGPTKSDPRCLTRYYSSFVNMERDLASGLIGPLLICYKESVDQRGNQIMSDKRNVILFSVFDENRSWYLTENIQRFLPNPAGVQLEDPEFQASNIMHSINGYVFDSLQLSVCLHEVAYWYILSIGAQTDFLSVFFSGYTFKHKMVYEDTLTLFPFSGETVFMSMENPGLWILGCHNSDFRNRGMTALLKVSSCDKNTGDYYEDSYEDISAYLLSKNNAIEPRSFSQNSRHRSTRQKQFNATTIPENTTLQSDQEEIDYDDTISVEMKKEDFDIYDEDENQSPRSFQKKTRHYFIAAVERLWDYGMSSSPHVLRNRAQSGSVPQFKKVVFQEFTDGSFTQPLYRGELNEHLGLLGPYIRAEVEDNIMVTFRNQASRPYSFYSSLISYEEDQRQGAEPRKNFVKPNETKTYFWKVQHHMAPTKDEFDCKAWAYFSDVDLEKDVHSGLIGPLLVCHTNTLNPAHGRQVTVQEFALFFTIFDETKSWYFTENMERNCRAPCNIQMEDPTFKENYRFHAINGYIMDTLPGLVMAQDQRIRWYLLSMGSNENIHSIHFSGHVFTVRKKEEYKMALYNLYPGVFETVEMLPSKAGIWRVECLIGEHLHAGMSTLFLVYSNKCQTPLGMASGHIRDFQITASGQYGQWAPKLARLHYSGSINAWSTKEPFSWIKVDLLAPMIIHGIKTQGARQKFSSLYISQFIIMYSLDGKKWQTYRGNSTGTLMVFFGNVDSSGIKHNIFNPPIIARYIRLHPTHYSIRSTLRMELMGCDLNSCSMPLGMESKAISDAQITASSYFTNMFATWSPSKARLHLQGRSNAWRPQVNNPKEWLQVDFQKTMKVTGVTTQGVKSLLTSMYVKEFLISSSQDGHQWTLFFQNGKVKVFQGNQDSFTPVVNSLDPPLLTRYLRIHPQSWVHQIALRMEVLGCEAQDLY

B1: Hu-vWF[764-1270]-8His S764P-L765K-S766I (other)
chain: PKICRPPMVKLVCPADNLRAEGLECTKTCQNYDLECMSMGCVSGCLCPPGMVRHENRCVALERCPCFHQGKEYAPGETVKIGCNTCVCRDRKWNCTDHVCDATCSTIGMAHYLTFDGLKYLFPGECQYVLVQDYCGSNPGTFRILVGNKGCSHPSVKCKKRVTILVEGGEIELFDGEVNVKRPMKDETHFEVVESGRYIILLLGKALSVVWDRHLSISVVLKQTYQEKVCGLCGNFDGIQNNDLTSSNLQVEEDPVDFGNSWKVSSQCADTRKVPLDSSPATCHNNIMKQTMVDSSCRILTSDVFQDCNKLVDPEPYLDVCIYDTCSCESIGDCACFCDTIAAYAHVCAQHGKVVTWRTATLCPQSCEERNLRENGYECEWRYNSCAPACQVTCQHPEPLACPVQCVEGCHAHCPPGKILDELLQTCVDPEDCPVCEVAGRRFASGKKVTLNPSDPEHCQICHCDVVNLTCEACQEPGGLVVPPTDAPVSPTTLYVEDISEPPLHDFHHHHHHHH
B2: Hu-vWF[764-1270]-8His S764P-L765M-S766I (other)
chain: B1 chain with K2M
B3: Hu-vWF[764-1270]-8His S764P-L765Q-S766I (other)
chain: B1 chain with K2Q
B4: Hu-vWF[764-1270]-8His S764P-L765R-S766I (other)
chain: B1 chain with K2R
B5: Hu-vWF[764-1270]-8His S764P-L765T-S766I (other)
chain: B1 chain with K2T
B6: Hu-vWF[764-1270]-8His S764P-L765V-S766I (other)
chain: B1 chain with K2V
B7: Hu-vWF[764-1270]-8His S764P-L765W-S766I (other)
chain: B1 chain with K2W
B8: Hu-vWF[764-1270]-8His S764P-L765Y-S766I (other)
chain: B1 chain with K2Y
B9: Hu-vWF[764-1270]-8His S766W-L809A (other)
chain: B1 chain with P1S, K2L, I3W, L46A
B10: Hu-vWF[764-1270]-8His S766W-L809D (other)
chain: B1 chain with P1S, K2L, I3W, L46D
B11: Hu-vWF[764-1270]-8His S766W-L809E (other)
chain: B1 chain with P1S, K2L, I3W, L46E
B12: Hu-vWF[764-1270]-8His S766W-L809F (other)
chain: B1 chain with P1S, K2L, I3W, L46F
B13: Hu-vWF[764-1270]-8His S766W-L809G (other)
chain: B1 chain with P1S, K2L, I3W, L46G
B14: Hu-vWF[764-1270]-8His S766W-L809H (other)
chain: B1 chain with P1S, K2L, I3W, L46H
B15: Hu-vWF[764-1270]-8His S766W-L809I (other)
chain: B1 chain with P1S, K2L, I3W, L46I
B16: Hu-vWF[764-1270]-8His S766W-L809K (other)
chain: B1 chain with P1S, K2L, I3W, L46K
B17: Hu-vWF[764-1270]-8His S766W-L809M (other)
chain: B1 chain with P1S, K2L, I3W, L46M
B18: Hu-vWF[764-1270]-8His S766W-L809N (other)
chain: B1 chain with P1S, K2L, I3W, L46N
B19: Hu-vWF[764-1270]-8His S766W-L809P (other)
chain: B1 chain with P1S, K2L, I3W, L46P
B20: Hu-vWF[764-1270]-8His S766W-L809Q (other)
chain: B1 chain with P1S, K2L, I3W, L46Q
B21: Hu-vWF[764-1270]-8His S766W-L809R (other)
chain: B1 chain with P1S, K2L, I3W, L46R
B22: Hu-vWF[764-1270]-8His S766W-L809S (other)
chain: B1 chain with P1S, K2L, I3W, L46S
B23: Hu-vWF[764-1270]-8His S766W-L809T (other)
chain: B1 chain with P1S, K2L, I3W, L46T
B24: Hu-vWF[764-1270]-8His S766W-L809V (other)
chain: B1 chain with P1S, K2L, I3W, L46V
B25: Hu-vWF[764-1270]-8His S766W-L809W (other)
chain: B1 chain with P1S, K2L, I3W, L46W
B26: Hu-vWF[764-1270]-8His S766W-L809Y (other)
chain: B1 chain with P1S, K2L, I3W, L46Y
B27: Hu-vWF[764-1270]-8His S766W-S806A (other)
chain: B1 chain with P1S, K2L, I3W, S43A
B28: Hu-vWF[764-1270]-8His S766W-S806D (other)
chain: B1 chain with P1S, K2L, I3W, S43D
B29: Hu-vWF[764-1270]-8His S766W-S806E (other)
chain: B1 chain with P1S, K2L, I3W, S43E
B30: Hu-vWF[764-1270]-8His S766W-S806F (other)
chain: B1 chain with P1S, K2L, I3W, S43F
B31: Hu-vWF[764-1270]-8His S766W-S806G (other)
chain: B1 chain with P1S, K2L, I3W, S43G
B32: Hu-vWF[764-1270]-8His S766W-S806H (other)
chain: B1 chain with P1S, K2L, I3W, S43H
B33: Hu-vWF[764-1270]-8His S766W-S806I (other)
chain: B1 chain with P1S, K2L, I3W, S43I

Biological target: T1, recombinant Factor VIII (CSL627, …)
Assay: SPR, anti-His capture, FVIII injected, 37 C
Procedure: Binding kinetics were investigated by surface plasmon resonance using a Biacore 4000 biosensor at 37° C. Each mutant was captured from cell culture medium to a density of 40-150 RU on a CM-5 sensor chip pre-immobilised with anti-His antibody (14,000 RU). In an initial screening study, FVIII was injected over the captured mutants for 5 minutes at 1 nM and dissociation monitored for 5 minutes.
All sensorgrams were double referenced by subtraction of signals from a reference spot (containing only immobilised anti His antibody) and from a blank injection. Binding kinetics were determined by fitting the double referenced sensorgrams to a 1:1 kinetic model.

Binder | Kd | koff | kon | binding result
B1 | 0.0218 nM | 0.0015 s⁻¹ | 6.88e+07 M⁻¹ s⁻¹ | –
B2 | 0.00241 nM | 0.000137 s⁻¹ | 5.69e+07 M⁻¹ s⁻¹ | –
B3 | 0.248 nM | 0.000286 s⁻¹ | 1.15e+06 M⁻¹ s⁻¹ | –
B4 | 0.218 nM | 0.0173 s⁻¹ | 7.96e+07 M⁻¹ s⁻¹ | –
B5 | 0.0287 nM | 0.00331 s⁻¹ | 1.15e+08 M⁻¹ s⁻¹ | –
B6 | 0.00207 nM | 0.000116 s⁻¹ | 5.62e+07 M⁻¹ s⁻¹ | –
B7 | 0.132 nM | 0.000146 s⁻¹ | 1.11e+06 M⁻¹ s⁻¹ | –
B8 | 0.0367 nM | 0.0019 s⁻¹ | 5.17e+07 M⁻¹ s⁻¹ | –
B9 | 0.258 nM | 0.00115 s⁻¹ | 4.45e+06 M⁻¹ s⁻¹ | –
B10 | 0.425 nM | 0.0019 s⁻¹ | 4.46e+06 M⁻¹ s⁻¹ | –
B11 | 0.265 nM | 0.00155 s⁻¹ | 5.84e+06 M⁻¹ s⁻¹ | –
B12 | 0.228 nM | 0.000744 s⁻¹ | 3.26e+06 M⁻¹ s⁻¹ | –
B13 | 0.363 nM | 0.00226 s⁻¹ | 6.21e+06 M⁻¹ s⁻¹ | –
B14 | 0.397 nM | 0.00114 s⁻¹ | 2.87e+06 M⁻¹ s⁻¹ | –
B15 | 0.103 nM | 0.000541 s⁻¹ | 5.23e+06 M⁻¹ s⁻¹ | –
B16 | 0.219 nM | 0.00153 s⁻¹ | 7e+06 M⁻¹ s⁻¹ | –
B17 | 0.117 nM | 0.000581 s⁻¹ | 4.99e+06 M⁻¹ s⁻¹ | –

Binder | Kd | koff | kon | binding result
B18 | 0.369 nM | 0.00227 s⁻¹ | 6.15e+06 M⁻¹ s⁻¹ | –
B19 | – | – | – | no binding
B20 | 0.212 nM | 0.00113 s⁻¹ | 5.33e+06 M⁻¹ s⁻¹ | –
B21 | 0.352 nM | 0.00213 s⁻¹ | 6.07e+06 M⁻¹ s⁻¹ | –
B22 | 0.22 nM | 0.00144 s⁻¹ | 6.54e+06 M⁻¹ s⁻¹ | –
B23 | 0.161 nM | 0.00141 s⁻¹ | 8.72e+06 M⁻¹ s⁻¹ | –
B24 | 0.122 nM | 0.00094 s⁻¹ | 7.7e+06 M⁻¹ s⁻¹ | –
B25 | 0.648 nM | 0.00312 s⁻¹ | 4.81e+06 M⁻¹ s⁻¹ | –
B26 | 0.5 nM | 0.00339 s⁻¹ | 6.77e+06 M⁻¹ s⁻¹ | –
B27 | 0.0778 nM | 0.000376 s⁻¹ | 4.84e+06 M⁻¹ s⁻¹ | –
B28 | 0.164 nM | 0.000688 s⁻¹ | 4.2e+06 M⁻¹ s⁻¹ | –
B29 | 0.217 nM | 0.00129 s⁻¹ | 5.93e+06 M⁻¹ s⁻¹ | –
B30 | – | – | – | no binding
B31 | 0.245 nM | 0.00134 s⁻¹ | 5.46e+06 M⁻¹ s⁻¹ | –
B32 | 0.093 nM | 0.000828 s⁻¹ | 8.9e+06 M⁻¹ s⁻¹ | –
B33 | 0.283 nM | 0.000447 s⁻¹ | 1.58e+06 M⁻¹ s⁻¹ | –
